Patent publication US20120064110A1
*: point of attachment. NH(propargyl) = C#CCN*

Assay: Circular dichroism measurement of peptide secondary structure
Format: physicochemical
Details: aqueous environments; 208 nm and 222 nm signal; FIG. 1 and FIG. 2

| Substance | α-helical structure content by circular dichroism |
| --- | --- |
| Acetyl-AADAADKEAKQKAIDAATNAVNSAIEAANKAGG-NHCH2CCH (Ac-AADAADKEAKQKAIDAATNAVNSAIEAANKAGG-{NH(propargyl)}; SMILES C#CCNC(=O)CNC(=O)CNC(=O)[C@H](C)NC(=O)[C@H](CCCCN)NC(=O)[C@H](CC(N)=O)NC(=O)[C@H](C)NC(=O)[C@H](C)NC(=O)[C@H](CCC(=O)O)NC(=O)[C@@H](NC(=O)[C@H](C)NC(=O)[C@H](CO)NC(=O)[C@H](CC(N)=O)NC(=O)[C@@H](NC(=O)[C@H](C)NC(=O)[C@H](CC(N)=O)NC(=O)[C@@H](NC(=O)[C@H](C)NC(=O)[C@H](C)NC(=O)[C@H](CC(=O)O)NC(=O)[C@@H](NC(=O)[C@H](C)NC(=O)[C@H](CCCCN)NC(=O)[C@H](CCC(N)=O)NC(=O)[C@H](CCCCN)NC(=O)[C@H](C)NC(=O)[C@H](CCC(=O)O)NC(=O)[C@H](CCCCN)NC(=O)[C@H](CC(=O)O)NC(=O)[C@H](C)NC(=O)[C@H](C)NC(=O)[C@H](CC(=O)O)NC(=O)[C@H](C)NC(=O)[C@H](C)NC(C)=O)[C@@H](C)CC)[C@@H](C)O)C(C)C)[C@@H](C)CC) [HA54.4] | More significant improvement of the α-helical content |
| Acetyl-AADAADKEAAQKAIDAATNAVNAAIEAANAAGG-NHCH2CCH (Ac-AADAADKEAAQKAIDAATNAVNAAIEAANAAGG-{NH(propargyl)}; SMILES C#CCNC(=O)CNC(=O)CNC(=O)[C@H](C)NC(=O)[C@H](C)NC(=O)[C@H](CC(N)=O)NC(=O)[C@H](C)NC(=O)[C@H](C)NC(=O)[C@H](CCC(=O)O)NC(=O)[C@@H](NC(=O)[C@H](C)NC(=O)[C@H](C)NC(=O)[C@H](CC(N)=O)NC(=O)[C@@H](NC(=O)[C@H](C)NC(=O)[C@H](CC(N)=O)NC(=O)[C@@H](NC(=O)[C@H](C)NC(=O)[C@H](C)NC(=O)[C@H](CC(=O)O)NC(=O)[C@@H](NC(=O)[C@H](C)NC(=O)[C@H](CCCCN)NC(=O)[C@H](CCC(N)=O)NC(=O)[C@H](C)NC(=O)[C@H](C)NC(=O)[C@H](CCC(=O)O)NC(=O)[C@H](CCCCN)NC(=O)[C@H](CC(=O)O)NC(=O)[C@H](C)NC(=O)[C@H](C)NC(=O)[C@H](CC(=O)O)NC(=O)[C@H](C)NC(=O)[C@H](C)NC(C)=O)[C@@H](C)CC)[C@@H](C)O)C(C)C)[C@@H](C)CC) [HA54.1] | More significant improvement of the α-helical content |
| Acetyl-AADAADKEAAQKALDAATNALNAAIEAANAAGG-NHCH2CCH (Ac-AADAADKEAAQKALDAATNALNAAIEAANAAGG-{NH(propargyl)}; SMILES C#CCNC(=O)CNC(=O)CNC(=O)[C@H](C)NC(=O)[C@H](C)NC(=O)[C@H](CC(N)=O)NC(=O)[C@H](C)NC(=O)[C@H](C)NC(=O)[C@H](CCC(=O)O)NC(=O)[C@@H](NC(=O)[C@H](C)NC(=O)[C@H](C)NC(=O)[C@H](CC(N)=O)NC(=O)[C@H](CC(C)C)NC(=O)[C@H](C)NC(=O)[C@H](CC(N)=O)NC(=O)[C@@H](NC(=O)[C@H](C)NC(=O)[C@H](C)NC(=O)[C@H](CC(=O)O)NC(=O)[C@H](CC(C)C)NC(=O)[C@H](C)NC(=O)[C@H](CCCCN)NC(=O)[C@H](CCC(N)=O)NC(=O)[C@H](C)NC(=O)[C@H](C)NC(=O)[C@H](CCC(=O)O)NC(=O)[C@H](CCCCN)NC(=O)[C@H](CC(=O)O)NC(=O)[C@H](C)NC(=O)[C@H](C)NC(=O)[C@H](CC(=O)O)NC(=O)[C@H](C)NC(=O)[C@H](C)NC(C)=O)[C@@H](C)O)[C@@H](C)CC) [SEQHAS] | More significant improvement of the α-helical content |
| Acetyl-Ala-Ala-Asp-Lys-Ala-Ser-Thr-Gln-Ala-Ala-Ile-Asp-Gly-Ala-Thr-Asn-Ala-Val-Asn-Ser-Ala-Ile-Glu-Ala-Gly-Gly-NHCH2CCH (Ac-AADKASTQAAIDGATNAVNSAIEAGG-{NH(propargyl)}; SMILES C#CCNC(=O)CNC(=O)CNC(=O)[C@H](C)NC(=O)[C@H](CCC(=O)O)NC(=O)[C@@H](NC(=O)[C@H](C)NC(=O)[C@H](CO)NC(=O)[C@H](CC(N)=O)NC(=O)[C@@H](NC(=O)[C@H](C)NC(=O)[C@H](CC(N)=O)NC(=O)[C@@H](NC(=O)[C@H](C)NC(=O)CNC(=O)[C@H](CC(=O)O)NC(=O)[C@@H](NC(=O)[C@H](C)NC(=O)[C@H](C)NC(=O)[C@H](CCC(N)=O)NC(=O)[C@@H](NC(=O)[C@H](CO)NC(=O)[C@H](C)NC(=O)[C@H](CCCCN)NC(=O)[C@H](CC(=O)O)NC(=O)[C@H](C)NC(=O)[C@H](C)NC(C)=O)[C@@H](C)O)[C@@H](C)CC)[C@@H](C)O)C(C)C)[C@@H](C)CC) [A2] | less optimal for forming α-helical structures in aqueous environments |
